Assay results: US8367390B2, “Galactanase variants” (Novozymes A/S, priority 2002, dated 2013)
Read-outs that look alike come from different tables or passages of the source.

Assays:
[1] = Degradation of MeGal4, products by HPAE-PAD; assay type: biochemical; settings: for Gal2 in reaction products / Gal3 in reaction products / Gal4 in reaction products / Gal in reaction products / MeGal2 in reaction products / MeGal3 in reaction products / MeGal4 in reaction products / MeGal in reaction products: MeGal4 0.25 mg/ml, pH 6.5, 37° C.
Description: (§1) The activity on the galacto-oligosaccharide substrates prepared as described above and on the commercially available galactobiose (Gal2, Megazyme) was studied for the four purified galactanases HIGAL, MTGAL, AAGAL and BLGAL. The buffers and temperatures used were: 25 mM sodium acetate, 0.5 mM CaCl2, 0.005% Triton X-100, pH 6.5 at 37° C. for HIGAL and MTGAL, 50 mM sodium acetate, 1 mM CaCl2, pH 4 at 30° C. for AAGAL and 50 mM Mes, 1 mM CaCl2, pH 6.5 at 30° C. for BLGAL. Enzyme concentrations used were 0.8 μg/ml for HIGAL, 0.2 microgram/ml for MTGAL, and 10 micrograms/ml for AAGAL and BLGAL. With HIGAL and MTGAL substrate concentrations were all 0.25 mg/ml, whereas 0.34 mg/ml Gal2, 0.050 mg/ml Gal3 and 0.067 mg/ml Gal4 were used for AAGAL and BLGAL. Enzyme activity in samples withdrawn after various incubation times was inactivated by heating to 95° C. for 10 min. Compositions of reaction products were analysed using HPAE-PAD (Dionex) applying a PA-100 column and a linear gradient of sodium acetate (0-0.18 M) in 0.15 M NaOH. Response factors of the individual carbohydrates were estimated from reference runs with MeGal3, MeGal4, Gal, Gal2, Gal3 and Gal4. Selected results are shown in Tables 2-8 below (the figures indicating weight percentage of glactooligosaccharides).

[2] = assay type: biochemical; settings: for Gal2 in reaction products / Gal3 in reaction products / Gal4 in reaction products / Gal in reaction products: Gal4 0.25 mg/ml, pH 6.5, 37° C.
Description: as §1

[3] = Degradation of MeGal3, products by HPAE-PAD; assay type: biochemical; settings: for Gal2 in reaction products / Gal3 in reaction products / Gal in reaction products / MeGal2 in reaction products / MeGal3 in reaction products / MeGal in reaction products: MeGal3 0.25 mg/ml, pH 6.5, 37° C.
Description: as §1

[4] = Activity on galactotriose (Gal3); assay type: biochemical; settings: up to 24 hours; buffer, pH and temperature per enzyme
Description: as §1

[5] = Activity on galactobiose (Gal2); assay type: biochemical; settings: in 24 hours; buffer, pH and temperature per enzyme
Description: as §1

B1: MTGAL: GH Family 53 galactanase from Myceliophthora thermophila, SEQ ID NO: 1 (wild type parent) (protein, listed as Myceliophthora thermophila)
chain: ALTYRGVDWSSVVVEERAGVSYKNTNGNAQPLENILAANGVNTVRQRVWVNPADGNYNLDYNIAIAKRAKAAGLGVYIDFHYSDTWADPAHQTMPAGWPSDIDNLSWKLYNYTLDAANKLQNAGIQPTIVSIGNEIRAGLLWPTGRTENWANIARLLHSAAWGIKDSSLSPKPKIMIHLDNGWDWGTQNWWYTNVLKQGTLELSDFDMMGVSFYPFYSSSATLSALKSSLDNMAKTWNKEIAVVETNWPISCPNPRYSFPSDVKNIPFSPEGQTTFITNVANIVSSVSRGVGLFYWEPAWIHNANLGSSCADNTMFSQSGQALSSLSVFQRI
modifications: mat_peptide (1)..()
- Gal2 in reaction products ([1]; incubation time 0.0 hours): 0.0 weight percentage
- Gal3 in reaction products ([1]; incubation time 0.0 hours): 0.0 weight percentage
- Gal4 in reaction products ([1]; incubation time 0.0 hours): 0.0 weight percentage
- Gal in reaction products ([1]; incubation time 0.0 hours): 0.0 weight percentage
- MeGal2 in reaction products ([1]; incubation time 0.0 hours): 4.7 weight percentage
- MeGal3 in reaction products ([1]; incubation time 0.0 hours): 14.8 weight percentage
- MeGal4 in reaction products ([1]; incubation time 0.0 hours): 79.0 weight percentage
- MeGal in reaction products ([1]; incubation time 0.0 hours): 1.6 weight percentage
- Gal2 in reaction products ([1]; incubation time 0.5 hours): 3.3 weight percentage
- Gal3 in reaction products ([1]; incubation time 0.5 hours): 13.7 weight percentage
- Gal4 in reaction products ([1]; incubation time 0.5 hours): 2.5 weight percentage
- Gal in reaction products ([1]; incubation time 0.5 hours): 0.9 weight percentage
- MeGal2 in reaction products ([1]; incubation time 0.5 hours): 9.6 weight percentage
- MeGal3 in reaction products ([1]; incubation time 0.5 hours): 17.1 weight percentage
- MeGal4 in reaction products ([1]; incubation time 0.5 hours): 43.9 weight percentage
- MeGal in reaction products ([1]; incubation time 0.5 hours): 8.9 weight percentage
- Gal2 in reaction products ([1]; incubation time 2.0 hours): 10.9 weight percentage
- Gal3 in reaction products ([1]; incubation time 2.0 hours): 23.9 weight percentage
- Gal4 in reaction products ([1]; incubation time 2.0 hours): 3.7 weight percentage
- Gal in reaction products ([1]; incubation time 2.0 hours): 4.8 weight percentage
- MeGal2 in reaction products ([1]; incubation time 2.0 hours): 13.6 weight percentage
- MeGal3 in reaction products ([1]; incubation time 2.0 hours): 16.0 weight percentage
- MeGal4 in reaction products ([1]; incubation time 2.0 hours): 10.9 weight percentage
- MeGal in reaction products ([1]; incubation time 2.0 hours): 16.2 weight percentage
- Gal2 in reaction products ([1]; incubation time 5.0 hours): 20.1 weight percentage
- Gal3 in reaction products ([1]; incubation time 5.0 hours): 17.9 weight percentage
- Gal4 in reaction products ([1]; incubation time 5.0 hours): 2.9 weight percentage
- Gal in reaction products ([1]; incubation time 5.0 hours): 12.4 weight percentage
- MeGal2 in reaction products ([1]; incubation time 5.0 hours): 13.9 weight percentage
- MeGal3 in reaction products ([1]; incubation time 5.0 hours): 9.9 weight percentage
- MeGal4 in reaction products ([1]; incubation time 5.0 hours): 3.5 weight percentage
- MeGal in reaction products ([1]; incubation time 5.0 hours): 19.3 weight percentage
- Gal2 in reaction products ([1]; incubation time 24.0 hours): 32.7 weight percentage
- Gal3 in reaction products ([1]; incubation time 24.0 hours): 3.4 weight percentage
- Gal4 in reaction products ([1]; incubation time 24.0 hours): 1.1 weight percentage
- Gal in reaction products ([1]; incubation time 24.0 hours): 24.2 weight percentage
- MeGal2 in reaction products ([1]; incubation time 24.0 hours): 13.3 weight percentage
- MeGal3 in reaction products ([1]; incubation time 24.0 hours): 2.3 weight percentage
- MeGal4 in reaction products ([1]; incubation time 24.0 hours): 2.9 weight percentage
- MeGal in reaction products ([1]; incubation time 24.0 hours): 20.1 weight percentage
- Products from MeGal4 ([1]; in words, buffer, pH and temperature per enzyme): initial release mainly of MeGal, MeGal2 and Gal3 and some Gal2 but little Gal
- Products of Gal4 (galactotetraose) degradation [2]: mainly to Gal and Gal2, whereas Gal3 did not accumulate
- Gal2 in reaction products ([2]; incubation time 0.0 hours): 0.0 weight percentage
- Gal3 in reaction products ([2]; incubation time 0.0 hours): 42.0 weight percentage
- Gal4 in reaction products ([2]; incubation time 0.0 hours): 58.0 weight percentage
- Gal in reaction products ([2]; incubation time 0.0 hours): 0.0 weight percentage
- Gal2 in reaction products ([2]; incubation time 0.5 hours): 9.9 weight percentage
- Gal3 in reaction products ([2]; incubation time 0.5 hours): 27.7 weight percentage
- Gal4 in reaction products ([2]; incubation time 0.5 hours): 50.8 weight percentage
- Gal in reaction products ([2]; incubation time 0.5 hours): 11.6 weight percentage
- Gal2 in reaction products ([2]; incubation time 2.2 hours): 17.4 weight percentage
- Gal3 in reaction products ([2]; incubation time 2.2 hours): 45.5 weight percentage
- Gal4 in reaction products ([2]; incubation time 2.2 hours): 22.3 weight percentage
- Gal in reaction products ([2]; incubation time 2.2 hours): 14.9 weight percentage
- Gal2 in reaction products ([2]; incubation time 5.0 hours): 29.1 weight percentage
- Gal3 in reaction products ([2]; incubation time 5.0 hours): 29.5 weight percentage
- Gal4 in reaction products ([2]; incubation time 5.0 hours): 12.1 weight percentage
- Gal in reaction products ([2]; incubation time 5.0 hours): 29.2 weight percentage
- Gal2 in reaction products ([2]; incubation time 72.0 hours): 43.5 weight percentage
- Gal3 in reaction products ([2]; incubation time 72.0 hours): 1.5 weight percentage
- Gal4 in reaction products ([2]; incubation time 72.0 hours): 0.0 weight percentage
- Gal in reaction products ([2]; incubation time 72.0 hours): 54.9 weight percentage
- Gal2 in reaction products ([3]; incubation time 0.0 hours): 0.0 weight percentage
- Gal3 in reaction products ([3]; incubation time 0.0 hours): 0.0 weight percentage
- Gal in reaction products ([3]; incubation time 0.0 hours): 0.0 weight percentage
- MeGal2 in reaction products ([3]; incubation time 0.0 hours): 0.0 weight percentage
- MeGal3 in reaction products ([3]; incubation time 0.0 hours): 100.0 weight percentage
- MeGal in reaction products ([3]; incubation time 0.0 hours): 0.0 weight percentage
- Gal2 in reaction products ([3]; incubation time 0.5 hours): 0.0 weight percentage
- Gal3 in reaction products ([3]; incubation time 0.5 hours): 0.0 weight percentage
- Gal in reaction products ([3]; incubation time 0.5 hours): 0.0 weight percentage
- MeGal2 in reaction products ([3]; incubation time 0.5 hours): 2.7 weight percentage
- MeGal3 in reaction products ([3]; incubation time 0.5 hours): 87.2 weight percentage
- MeGal in reaction products ([3]; incubation time 0.5 hours): 10.1 weight percentage
- Gal2 in reaction products ([3]; incubation time 2.2 hours): 8.5 weight percentage
- Gal3 in reaction products ([3]; incubation time 2.2 hours): 0.4 weight percentage
- Gal in reaction products ([3]; incubation time 2.2 hours): 14.1 weight percentage
- MeGal2 in reaction products ([3]; incubation time 2.2 hours): 1.9 weight percentage
- MeGal3 in reaction products ([3]; incubation time 2.2 hours): 47.5 weight percentage
- MeGal in reaction products ([3]; incubation time 2.2 hours): 27.6 weight percentage
- Gal2 in reaction products ([3]; incubation time 5.0 hours): 10.9 weight percentage
- Gal3 in reaction products ([3]; incubation time 5.0 hours): 15.7 weight percentage
- Gal in reaction products ([3]; incubation time 5.0 hours): 2.2 weight percentage
- MeGal2 in reaction products ([3]; incubation time 5.0 hours): 3.2 weight percentage
- MeGal3 in reaction products ([3]; incubation time 5.0 hours): 50.6 weight percentage
- MeGal in reaction products ([3]; incubation time 5.0 hours): 17.4 weight percentage
- Gal2 in reaction products ([3]; incubation time 72.0 hours): 37.2 weight percentage
- Gal3 in reaction products ([3]; incubation time 72.0 hours): 23.2 weight percentage
- Gal in reaction products ([3]; incubation time 72.0 hours): 6.5 weight percentage
- MeGal2 in reaction products ([3]; incubation time 72.0 hours): 3.5 weight percentage
- MeGal3 in reaction products ([3]; incubation time 72.0 hours): 1.3 weight percentage
- MeGal in reaction products ([3]; incubation time 72.0 hours): 28.3 weight percentage
- Release of MeGal versus MeGal2 from MeGal3 ([3]; in words): much higher release of MeGal than MeGal2
- Activity on Gal3, products [4]: degraded Gal3 to Gal2 and Gal
- Activity on Gal2 [5]: Neither of the enzymes HIGAL, MTGAL, AAGAL or BLGAL had any detectable activity
